Data set [1] concerns the molecule itself. Nature of the data set: cross-linking; time-dependent cross-linking of TRIM72 WT purified from mammalian cells (copurified with endogenous microvesicles).
Data set [2] concerns the molecule itself. The data set is described as follows: SEC-MALS; Superdex 200 Increase 10/300 GL; 50 mM Tris-HCl pH 8.0, 300 mM NaCl, 2 mM TCEP; TRIM72 WT at 11.2, 5.6 and 2.8 mg/ml; dimer in solution. (In gel filtration, larger molecules generally elute earlier.)
Data set [3] deals with the molecule itself. Nature of the data set: cryo-EM structure; cryo-ET and subtomogram averaging of proteoliposomes (80 mol% DOPS, 20 mol% cholesterol); 50 mM Tris-HCl pH 8.0, 150 mM NaCl, 1 mM TCEP; higher-order assembly of dimers on the lipid bilayer.

Changes are numbered by the printed parent chain.

The text below walks through data of PMC10643145, “Structure and activation of the RING E3 ubiquitin ligase TRIM72 on the membrane” (Nature Structural & Molecular Biology, 2023).

As usually defined, the stoichiometry N is a count of units in the complex or per binding partner.

B1: human TRIM72 wild type, 2× Strep-tagged (natural protein, UniProt Q6ZMU5 1-477, looked up)
chain: MSAAPGLLHQELSCPLCLQLFDAPVTAECGHSFCRACLGRVAGEPAADGTVLCPCCQAPTRPQALSTNLQLARLVEGLAQVPQGHCEEHLDPLSIYCEQDRALVCGVCASLGSHRGHRLLPAAEAHARLKTQLPQQKLQLQEACMRKEKSVAVLEHQLVEVEETVRQFRGAVGEQLGKMRVFLAALEGSLDREAERVRGEAGVALRRELGSLNSYLEQLRQMEKVLEEVADKPQTEFLMKYCLVTSRLQKILAESPPPARLDIQLPIISDDFKFQVWRKMFRALMPALEELTFDPSSAHPSLVVSSSGRRVECSEQKAPPAGEDPRQFDKAVAVVAHQQLSEGEHYWEVDVGDKPRWALGVIAAEAPRRGRLHAVPSQGLWLLGLREGKILEAHVEAKEPRALRSPERRPTRIGLYLSFGDGVLSFYDASDADALVPLFAFHERLPRPVYPFFDVCWHDKGKNAQPLLLVGPEGAEA
notes: TRIM72 (MG53), human, wild type, full length; Copurified with endogenous microvesicles of about 100 nm; also called TRIM72 WT purified from mammalian cells; mammalian-expressed human TRIM72; source: HEK293T, transfected (polyethyleneimine), purified (StrepTrap HP, SEC on Superose 6 Increase)
Take B1: the binding result in data set [1] is “binds”.

B2: mouse TRIM72 wild type (tripartite motif-containing protein 72) (natural protein, UniProt Q1XH17 1-477, looked up)
chain: MSAAPGLLRQELSCPLCLQLFDAPVTAECGHSFCRACLIRVAGEPAADGTVACPCCQAPTRPQALSTNLQLSRLVEGLAQVPQGHCEEHLDPLSIYCEQDRTLVCGVCASLGSHRGHRLLPAAEAQARLKTQLPQQKMQLQEACMRKEKTVAVLEHQLVEVEETVRQFRGAVGEQLGKMRMFLAALESSLDREAERVRGDAGVALRRELSSLNSYLEQLRQMEKVLEEVADKPQTEFLMKFCLVTSRLQKILSESPPPARLDIQLPVISDDFKFQVWKKMFRALMPALEELTFDPSSAHPSLVVSSSGRRVECSDQKAPPAGEDTRQFDKAVAVVAQQLLSQGEHYWEVEVGDKPRWALGVMAADASRRGRLHAVPSQGLWLLGLRDGKILEAHVEAKEPRALRTPERPPARIGLYLSFADGVLAFYDASNPDVLTPIFSFHERLPGPVYPIFDVCWHDKGKNAQPLLLVGPEQEQA
notes: TRIM72 (MG53), Mus musculus, wild type, full length; Tight dimer in solution by SEC-MALS; higher-order assembly only on PS liposomes; also called TRIM72 WT; MG53; source: E. coli BL21(DE3), purified (AC, IEX, SEC); not shown: His6, N-terminal, cleaved; MBP, N-terminal, cleaved
As for B2, in data set [2], the “stoichiometry N” value was 2.

B3: mouse TRIM72^M138R (natural protein, UniProt Q1XH17 1-477, looked up)
chain: B2 chain with M138R
notes: TRIM72, Mus musculus, mutation on the outer side of the H1 helix of the coiled-coil domain; source: E. coli BL21(DE3), purified (AC, IEX, SEC); not shown: His6, N-terminal, cleaved; MBP, N-terminal, cleaved
As for B3, in data set [3], the binding result is “binds”.
